Legend:
[1] = target: T1, cell permeable human non-Casp1 cleavable Sirt1 polypeptide (NC-Sirt1)
T1 chain: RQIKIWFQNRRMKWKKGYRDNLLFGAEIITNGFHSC

[2] = target: T2, sirtuin 1 (human Sirt1, endogenous in human aortic endothelial cells), Q96EB6
T2 chain: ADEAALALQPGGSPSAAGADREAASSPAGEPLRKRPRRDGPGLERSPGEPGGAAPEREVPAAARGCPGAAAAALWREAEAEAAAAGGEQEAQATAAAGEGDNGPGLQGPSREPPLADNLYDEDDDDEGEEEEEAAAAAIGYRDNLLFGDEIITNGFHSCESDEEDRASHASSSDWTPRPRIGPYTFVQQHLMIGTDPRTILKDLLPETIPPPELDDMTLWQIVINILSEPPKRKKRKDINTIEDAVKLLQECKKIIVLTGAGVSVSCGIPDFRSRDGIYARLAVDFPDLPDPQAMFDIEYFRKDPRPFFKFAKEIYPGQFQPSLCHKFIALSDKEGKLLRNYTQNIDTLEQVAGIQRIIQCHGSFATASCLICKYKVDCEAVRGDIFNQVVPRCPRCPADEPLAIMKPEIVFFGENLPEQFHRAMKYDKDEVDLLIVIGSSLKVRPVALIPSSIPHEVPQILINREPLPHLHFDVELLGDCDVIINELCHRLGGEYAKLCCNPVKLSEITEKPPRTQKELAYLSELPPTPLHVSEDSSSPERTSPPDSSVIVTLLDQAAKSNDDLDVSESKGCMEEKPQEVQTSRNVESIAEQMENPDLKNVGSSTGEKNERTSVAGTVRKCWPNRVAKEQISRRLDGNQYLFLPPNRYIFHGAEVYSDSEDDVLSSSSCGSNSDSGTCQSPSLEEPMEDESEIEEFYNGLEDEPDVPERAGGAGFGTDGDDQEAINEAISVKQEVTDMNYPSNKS

B1: caspase-1 (human, endogenous in human aortic endothelial cells) (protein)
chain: NPAMPTSSGSEGNVKLCSLEEAQRIWKQKSAEIYPIMDKSSRTRLALIICNEEFDSIPRRTGAEVDITGMTMLLQNLGYSVDVKKNLTASDMTTELEAFAHRPEHKTSDSTFLVFMSHGIREGICGKKHSEQVPDILQLNAIFNMLNTKNCPSLKDKPKVIIIQACRGDSPGVVWFKDSVGVSGNLSLPTTEEFEDDAIKKAHIEKDFIAFCSSTPDNVSWRHPTMGSVFIGRLIEHMQEYACSCDVEEIFRKVRFSFEQPDGRAQMPTTERVTLTRCFYLFPGH
[1]
  cleaved-Sirt1 expression by Western blot with anti-Sirt1 antibody in oxLDL-treated HAECs: NC-Sirt1 dose-dependently decreases the cleavage of Sirt1 induced by oxLDL
[2]
  cleaved-Sirt1 expression by Western blot in HAECs treated with oxLDL: oxLDL induced the expression of cleaved-Sirt1 by 2.4-folds in HAECs
